Measured values reported in the supplement of paper PMC9732359.
± gives the uncertainty stated by the source.

Test: protein stability index of a GFP-peptide fusion (yeast GPS) (PSI 1-4); higher = more stable; sorted into four equal gates, so the index is relative within each strain
Procedure, shortened: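 Peptides tiling yeast proteins in 17-residue segments were fused downstream of GFP, with Cherry expressed from the same plasmid. As a pooled library in yeast, mid-log cultures grown in leucine-free medium were sorted into four equal gates by GFP/Cherry fluorescence ratio. Gate plasmids were PCR-amplified and Illumina-sequenced, and barcodes linked reads to strains. Each peptide received a protein stability index equal to the sum of each gate's read frequency times its gate number.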

| Sequence | protein stability index (doa10∆) | protein stability index (pdr5∆) | protein stability index (san1∆) | protein stability index (ubr1∆) |
| --- | --- | --- | --- | --- |
| NNSEQDQEIVIQQLHSV [ISW2] | 2.48 ± 0.06 | 2.59 ± 0.071 | 2.2 ± 0.096 | 2.53 ± 0.038 |
| SQFINDHILFTKTFIFI [SRB8] | 1.56 ± 0.054 | 1.48 ± 0.056 | 1.47 ± 0.089 | 1.41 ± 0.033 |
| AAPLLALLRENQDSVKT [RPN2] | 2.55 ± 0.18 | 3.23 ± 0.1 | 3 ± 0.15 | 2.6 ± 0.11 |
| DRRKARKAYFTAPSSQR [RPL26A] | 2.59 ± 0.069 | 2.49 ± 0.091 | 2.76 ± 0.057 | 2.59 ± 0.068 |
| FVIGEQGKPYISLPKGK [RPS4A] | 3.34 ± 0.068 | 3.21 ± 0.065 | 3.25 ± 0.051 | 2.41 ± 0.053 |
| SLQQMQHLQQLKMQQQQ [GAL11] | 2.05 ± 0.096 | 2.09 ± 0.06 | 2.36 ± 0.099 | 1.41 ± 0.08 |
| NKVCRIEAASTTQDQCK [RPB8] | 2.66 ± 0.056 | 2.89 ± 0.07 | 2.63 ± 0.075 | 2.93 ± 0.063 |
| AQSSHIRAIRKVISEIL [RPS1A] | 1.55 ± 0.017 | 1.624 ± 0.015 | 1.62 ± 0.031 | 1.748 ± 0.015 |
| FKHISVKDFTSLGFNEV [RPO21] | 3.08 ± 0.21 | 2.38 ± 0.12 | 2 ± 0.14 | 2.25 ± 0.044 |
| ARKELPIFDYIHIDALE [SIR3] | 2.3 ± 0.053 | 2.34 ± 0.056 | 2.21 ± 0.059 | 2.5 ± 0.047 |
| DYKTAFSYFFESFESYH [RPN6] | 2.37 ± 0.058 | 2.77 ± 0.065 | 2.59 ± 0.067 | 2.55 ± 0.033 |
| SNTSTSKMLDAASSQVS [SNF12] | 2.51 ± 0.052 | 2.8 ± 0.042 | 2.5 ± 0.12 | 2.83 ± 0.051 |
| PNHIPSVNPSNKPIKRM [SWP82] | 2.87 ± 0.087 | 2.96 ± 0.057 | 2.75 ± 0.081 | 3.02 ± 0.042 |
| DILLNERVWNICLYSSF [AAR2] | 1.91 ± 0.066 | 1.68 ± 0.064 | 1.55 ± 0.14 | 1.84 ± 0.04 |
| NNYKDLLAVAIAASYHY [RPP0] | 1.4 ± 0.065 | 1.95 ± 0.12 | 1.39 ± 0.15 | 1.64 ± 0.068 |
| CKNFEKTQLGSTMTEPV [GAL11] | 2.81 ± 0.05 | 2.84 ± 0.065 | 2.58 ± 0.054 | 2.84 ± 0.039 |
| DSNTTEILTSVDVLGTH [SIR4] | 2.92 ± 0.063 | 2.96 ± 0.058 | 2.93 ± 0.06 | 3.04 ± 0.036 |
| MDVDSVKTTLVSLTQLR [RPC82] | 2.57 ± 0.1 | 1.81 ± 0.074 | 2.08 ± 0.12 | 1.5 ± 0.093 |
| SEKQNDEEAAGASTVMK [PRP8] | 3.36 ± 0.15 | 3.18 ± 0.093 | 3.38 ± 0.11 | 3.43 ± 0.11 |
| LRLDGHTKSDERSELLR [SNF2] | 3.24 ± 0.081 | 3.18 ± 0.084 | 3.38 ± 0.079 | 3.33 ± 0.078 |
| NFARQLLFNNDFPLLKV [RRP40] | 2.91 ± 0.05 | 2.02 ± 0.049 | 2.06 ± 0.08 | 2.12 ± 0.037 |
| TINKAVQVKVLGKYEFS [ESC2] | 1.48 ± 0.077 | 1.37 ± 0.092 | 1.89 ± 0.18 | 2 ± 0.076 |
| LRLTEQKSPKIRDPLTQ [RPC82] | 1.6 ± 0.071 | 1.66 ± 0.041 | 1.91 ± 0.12 | 1.92 ± 0.045 |
| PDILATDLIREKTMMTF [YCS4] | 2.28 ± 0.078 | 3.08 ± 0.081 | 2.86 ± 0.082 | 2.62 ± 0.056 |
| FKQSNSETFLQFYVKRW [CDC53] | 2.93 ± 0.13 | 2.96 ± 0.071 | 2.96 ± 0.097 | 2.76 ± 0.1 |
| LKESYSQKHNGRILKWL [CDC53] | 2.01 ± 0.059 | 2.69 ± 0.057 | 2.34 ± 0.055 | 2.14 ± 0.056 |
| EVYTKTIEVLDEVITEG [POP7] | 2.84 ± 0.069 | 3.12 ± 0.064 | 3.15 ± 0.053 | 3.03 ± 0.067 |

| Sequence | protein stability index (doa10∆) | protein stability index (pdr5∆) | protein stability index (san1∆) | protein stability index (ubr1∆) |
| --- | --- | --- | --- | --- |
| NNNNKSINKNNKEMHTD [SSN2] | 3.01 ± 0.087 | 2.99 ± 0.082 | 2.75 ± 0.073 | 3.17 ± 0.093 |
| TRYELYIKNILEAPVKS [YLR335W/NUP2] | 1.67 ± 0.045 | 2.1 ± 0.054 | 1.66 ± 0.087 | 1.56 ± 0.057 |
| EQTCVKLLDSGCENPAD [SRP72] | 3.26 ± 0.066 | 3.4 ± 0.085 | 2.91 ± 0.092 | 3.46 ± 0.073 |
| AGKSLVSKSEPKFFLGE [QCR2] | 3.41 ± 0.09 | 3.31 ± 0.067 | 3.08 ± 0.054 | 3.32 ± 0.047 |
| PISKHSKQAIYTRAAAS [RPS25B] | 2.64 ± 0.067 | 2.63 ± 0.054 | 2.43 ± 0.061 | 2.83 ± 0.051 |
| EFLFESLKNDLPQFRSS [ECM29] | 2.93 ± 0.087 | 3.1 ± 0.092 | 3.28 ± 0.082 | 3 ± 0.11 |
| EKLNKTDENTPSADGAD [ITC1] | 3.35 ± 0.098 | 3.29 ± 0.061 | 3.01 ± 0.054 | 3.05 ± 0.05 |
| YLGEGPRMVRDVFRLAR [RPT3] | 2.79 ± 0.14 | 2.96 ± 0.053 | 2.8 ± 0.14 | 2.88 ± 0.09 |
| DAPFNKVVLKALFLSKI [RPL18A] | 1.55 ± 0.1 | 1.56 ± 0.074 | 1.25 ± 0.13 | 1.32 ± 0.067 |
| QNRRLAFEELEGSWDRG [PRP8] | 2.91 ± 0.17 | 3.31 ± 0.17 | 3.24 ± 0.15 | 3.31 ± 0.16 |
| LSGLAQRKTNGASNGDD [BRN1] | 3.15 ± 0.17 | 3.29 ± 0.17 | 3.05 ± 0.077 | 3.6 ± 0.15 |
| LANWFLEVYASGNPNAT [YML031W/NDC1] | 2.03 ± 0.055 | 2.17 ± 0.046 | 2.37 ± 0.075 | 1.69 ± 0.045 |
| IRINDEPILGQITLTFI [YML103C/NUP188] | 2.21 ± 0.067 | 2.64 ± 0.05 | 1.57 ± 0.073 | 2.25 ± 0.048 |
| EKDFCTSCLQNNNQKID [SRB8] | 3.13 ± 0.09 | 3.29 ± 0.13 | – | 2.93 ± 0.055 |
| SAAGNKAIPTFSFGKPF [YIL149C/MLP2] | 2.73 ± 0.046 | 2.86 ± 0.055 | 2.96 ± 0.045 | 2.96 ± 0.034 |
| RNEKRMFLEFQSTQTDL [SMC2] | 2.53 ± 0.19 | 2.48 ± 0.19 | 3.24 ± 0.14 | 2.61 ± 0.12 |
| FQAVIQKSINHPPDFKR [SNF2] | 2.8 ± 0.12 | 2.98 ± 0.19 | 3.02 ± 0.14 | 3.19 ± 0.11 |
| FAIRDDRDHINPDDLMK [RPT4] | 2.65 ± 0.15 | 2.99 ± 0.14 | 3.51 ± 0.093 | 3.33 ± 0.11 |
| QPMISPDNSIFGDTKSE [SWI3] | 3.14 ± 0.059 | 3.38 ± 0.087 | 2.94 ± 0.098 | 3.1 ± 0.061 |
| HRKHIAVLKKIQSKAVE [YCG1] | 2.55 ± 0.11 | 2.81 ± 0.097 | 2.69 ± 0.1 | 2.57 ± 0.064 |
| VQVSKAGGLPMDALTLM [RRP45] | 1.28 ± 0.12 | 1.23 ± 0.18 | 1.1 ± 0.2 | 1.08 ± 0.14 |
| SWNLTGTILSSAGDDGK [YGL100W/SEH1] | 1.37 ± 0.062 | 1.88 ± 0.068 | 3.03 ± 0.077 | 2.98 ± 0.084 |
| LLISDTESNELIQKLQN [IRR1] | 2.79 ± 0.076 | 2.85 ± 0.084 | 2.38 ± 0.073 | 2.9 ± 0.084 |
| VLVLHGDKDTRADIVRN [ISW2] | 3.02 ± 0.063 | 3.17 ± 0.063 | 2.9 ± 0.078 | 3.06 ± 0.054 |
| GKIVGFDEFMNVVIDEA [SME1] | 3.26 ± 0.063 | 3.33 ± 0.064 | 3.36 ± 0.056 | 3.39 ± 0.05 |
| HPWEQAKEVKVLYHTSG [PRP8] | 2.81 ± 0.23 | 2.78 ± 0.14 | 3.03 ± 0.085 | 2.9 ± 0.091 |
